The values below come from the supplement of paper PMC10567573.

± gives the standard deviation.

This series can be described thus: protein stability index of a GFP-peptide fusion (GPS, HEK-293T) (PSI 1-6); higher = more stable. As to conditions: c terminus: a fixed tail appended.
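Note: 24-mer peptide tiles fused after GFP, lentivirally expressed, FACS-sorted into six equal bins by GFP/DsRed ratio, decoded by Illumina sequencing, PSI is the read-weighted mean bin number.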

Turning to VYHPSPEESRDPTLYANNVQRVMA [LPCAT4], the protein stability index reads like this: (treatment: DMSO) 3.6 ± 0.13; (treatment: MLN4924 1 uM, 8 h) 3.81 ± 0.12.

Turning to WEEAAPGRAVEHAMFLGDAAAHWY [MYORG], the protein stability index reads like this: (treatment: DMSO) 3.05 ± 0.47; (treatment: MLN4924 1 uM, 8 h) 3.15 ± 0.22.

For WEQTHLTYRIENYTPDLPRADVDH [MMP1], the protein stability index by setting is: (treatment: DMSO) 3.95 ± 0.31; (treatment: MLN4924 1 uM, 8 h) 3.53 ± 0.3.

For WFSLASVIFLLLFAPFIVYYFIMA [DHCR7], the protein stability index was determined as 2.27 ± 0.53 (treatment: DMSO) and 2.34 ± 0.44 (treatment: MLN4924 1 uM, 8 h).

Regarding WHLKQSPASPERDYSPYYKTIEEL [KRT13], the protein stability index (treatment: DMSO) is 3.26 ± 0.094 and the protein stability index (treatment: MLN4924 1 uM, 8 h) amounted to 3.29 ± 0.26.

For WHPAENIIAIAATNNLYIFQDKVN [PPP2R2C], the protein stability index by setting is: (treatment: DMSO) 2.6 ± 0.48; (treatment: MLN4924 1 uM, 8 h) 2.44 ± 0.31.

As to WIEQLNECKQLSESQVKSLCEKAK [PPP2CA], the protein stability index reads like this: (treatment: DMSO) 3.85 ± 0.18; (treatment: MLN4924 1 uM, 8 h) 3.87 ± 0.1.

With WIVDKQHVYIGSAGLDWQSLGQMK [PLD5], the protein stability index came to 2.44 ± 0.42 (treatment: DMSO) and 2.16 ± 0.24 (treatment: MLN4924 1 uM, 8 h).

For the sequence WKIALLFVAFALCMFCLYSFMPLV [SLC35F2], the protein stability index by setting is: (treatment: DMSO) 2.19 ± 0.51; (treatment: MLN4924 1 uM, 8 h) 2.69 ± 0.46.

WKLQKKEHPPEVSRETQRTPMNHQ [FBXO34]: the protein stability index reads like this: (treatment: DMSO) 4.52 ± 0.11; (treatment: MLN4924 1 uM, 8 h) 4.49 ± 0.16.

WMENNGHVAGEQMLEDGPHNANRG [CCDC70]: the protein stability index is 5.23 ± 0.39 (treatment: DMSO) and 5.25 ± 0.14 (treatment: MLN4924 1 uM, 8 h).

For the sequence WNDLRPKLSCLFAGPHSTLTPPCS [SNX8], the protein stability index is 2.27 ± 0.29 (treatment: DMSO) and 2.27 ± 0.39 (treatment: MLN4924 1 uM, 8 h).

Consider WSRNSKPVHTTILNPHIHLMGDES [CAMK2A], for which the protein stability index runs as follows: (treatment: DMSO) 3.4 ± 0.28; (treatment: MLN4924 1 uM, 8 h) 3.53 ± 0.08.

For WYDMFRDAAAILLDEQNKRPCRKF [ZMAT5], the protein stability index is, setting by setting: (treatment: DMSO) 2.35 ± 0.22; (treatment: MLN4924 1 uM, 8 h) 2.33 ± 0.44.

YAFANVFHGWKYMFGLVIPLGVLQ [SLC2A12] displayed a protein stability index (treatment: DMSO) of 3.19 ± 0.62 and a protein stability index (treatment: MLN4924 1 uM, 8 h) of 3.11 ± 0.52.

On to YAPSCAKCKKKITGEIMHALKMTW [PDLIM7], for which the protein stability index was 2.53 ± 0.33 (treatment: DMSO) and 2.44 ± 1 (treatment: MLN4924 1 uM, 8 h).

The sequence YEIPHFRLKKVENIKIWLSLRSYL [PHTF1] came in with a protein stability index (treatment: DMSO) of 2.8 ± 1 and a protein stability index (treatment: MLN4924 1 uM, 8 h) of 2.92 ± 0.9.

For YEPLLSRVQAALVWERPARSALWC [RETREG3], the protein stability index turned out to be 2.39 ± 0.53 (treatment: DMSO) and 2.12 ± 0.22 (treatment: MLN4924 1 uM, 8 h).

As for YESHSTSELEDLTEPEQRELKTKL [TPD52L3], the protein stability index is, setting by setting: (treatment: DMSO) 5.63 ± 0.13; (treatment: MLN4924 1 uM, 8 h) 5.52 ± 0.11.

YFYHRETENEEQTQLTQNAVSCPY [KCNA4]: the protein stability index was found to be 3.88 ± 0.34 (treatment: DMSO) and 3.96 ± 0.17 (treatment: MLN4924 1 uM, 8 h).

Consider YGLPIMVTLMVAKWTGDFFNKGIY [CLCN6], for which the protein stability index came to 2.98 ± 0.25 (treatment: DMSO) and 3.4 ± 0.42 (treatment: MLN4924 1 uM, 8 h).

Turning to YIATQGSLPETFGDFWRMIWEQRS [PTPRD], the protein stability index came to 2.21 ± 0.21 (treatment: DMSO) and 2.5 ± 0.55 (treatment: MLN4924 1 uM, 8 h).

Consider YITKVSEEVTRLGAQVKELEEKCQ [TRIM15], for which the protein stability index is, setting by setting: (treatment: DMSO) 4.07 ± 0.24; (treatment: MLN4924 1 uM, 8 h) 4.22 ± 0.37.

Sequence YKAKSRSPGSPVGEGTGSPPKWQI [ADD1] had a protein stability index (treatment: DMSO) of 3.5 ± 0.28 and a protein stability index (treatment: MLN4924 1 uM, 8 h) of 3.76 ± 0.33.

Take YKDRQKFSEQVFKVASSDLVNMGI [FLOT1]: the protein stability index runs as follows: (treatment: DMSO) 2.52 ± 0.24; (treatment: MLN4924 1 uM, 8 h) 2.77 ± 0.29.

Turning to YKGHTDVVRYLLEQRADPNAKAHC [FEM1B], the protein stability index runs as follows: (treatment: DMSO) 3.27 ± 0.44; (treatment: MLN4924 1 uM, 8 h) 3.6 ± 0.17.

Regarding YKPPALKKSNSPGTASSGSSRLPQ [ZC2HC1A], the protein stability index by setting is: (treatment: DMSO) 4.46 ± 0.079; (treatment: MLN4924 1 uM, 8 h) 4.51 ± 0.2.

On to YKRRIDAENSPYLNPQLVQPAKKP [ESRRG], for which the protein stability index was determined as 4.01 ± 0.27 (treatment: DMSO) and 3.85 ± 0.33 (treatment: MLN4924 1 uM, 8 h).

Take YLDPSVLSGVSCFVMFLCLADYLV [ARL6IP1]: the protein stability index is 2.98 ± 0.21 (treatment: DMSO) and 2.97 ± 0.39 (treatment: MLN4924 1 uM, 8 h).

On to YLLHPAAFHGAPSHLPTRSPSFPE [TBX6], for which the protein stability index runs as follows: (treatment: DMSO) 2.49 ± 0.28; (treatment: MLN4924 1 uM, 8 h) 2.87 ± 0.26.

Regarding YLQIFATRRSCIDESQISAEEAED [FAM189A2], the protein stability index was 3.71 ± 0.14 (treatment: DMSO) and 3.92 ± 0.32 (treatment: MLN4924 1 uM, 8 h).

With YPVVVAESMYGDFQEAMTHLQHKL [TENT5D], the protein stability index runs as follows: (treatment: DMSO) 2.49 ± 0.15; (treatment: MLN4924 1 uM, 8 h) 2.81 ± 0.38.

In the case of YQETISDVLNDAIFDEDHDEMVIV [GCH1], the protein stability index runs as follows: (treatment: DMSO) 3.98 ± 0.09; (treatment: MLN4924 1 uM, 8 h) 4.02 ± 0.25.

On to YQKILAGKIDFPRHLDFHVKDLIK [PRKX], for which the protein stability index turned out to be 2.19 ± 0.97 (treatment: DMSO) and 2.1 ± 0.4 (treatment: MLN4924 1 uM, 8 h).

For the sequence YRFFKYIENRDVAKSVLKERGLKK [BTBD10], the protein stability index is, setting by setting: (treatment: DMSO) 2.44 ± 0.25; (treatment: MLN4924 1 uM, 8 h) 2.52 ± 0.3.

The sequence YRNLTHNPPSDFSFQNMNSKRKAE [STK38L] came in with a protein stability index (treatment: DMSO) of 4.47 ± 0.17 and a protein stability index (treatment: MLN4924 1 uM, 8 h) of 4.58 ± 0.087.
